According to patent publication US20230129258A1 (Bicycle, published 2023):
Starred links: 1 amine or outer side, 2 acyl side, 3 side chain; linkers in the order of their positions; H or OH if unused. Positions of bridges follow the written chain, without caps; N, C: chain ends. Non-standard residues stand in square brackets, D forms with d. Chains are numbered I, II in the order given. No end group written: not given here. dLys(PYA) = D-lysine Nε-acylated with 4-pentynoic acid, clicked (triazole) to the linker azide, O=C(CCc1cn([*:3])nn1)NCCCC[C@@H](N[*:1])C(=O)[*:2]; TATA = O=C(CC[*:1])N1CN(C(=O)CC[*:2])CN(C(=O)CC[*:3])C1; 1Nal = N[C@@H](Cc1cccc2ccccc12)C(=O)O; Hyp = O=C(O)[C@@H]1C[C@@H](O)CN1; hArg = N=C(N)NCCCC[C@H](N)C(=O)O; tBuAla = CC(C)(C)C[C@H](N)C(=O)O; Nle = CCCC[C@H](N)C(=O)O

Assays:
[1] = target: T1, Nectin-1 (2880-N1, R&D Systems) (UniProt Q15223 31-334, limits assumed, biotinylated); test: SPR, biotinylated target on streptavidin surface
T1 sequence (looked up): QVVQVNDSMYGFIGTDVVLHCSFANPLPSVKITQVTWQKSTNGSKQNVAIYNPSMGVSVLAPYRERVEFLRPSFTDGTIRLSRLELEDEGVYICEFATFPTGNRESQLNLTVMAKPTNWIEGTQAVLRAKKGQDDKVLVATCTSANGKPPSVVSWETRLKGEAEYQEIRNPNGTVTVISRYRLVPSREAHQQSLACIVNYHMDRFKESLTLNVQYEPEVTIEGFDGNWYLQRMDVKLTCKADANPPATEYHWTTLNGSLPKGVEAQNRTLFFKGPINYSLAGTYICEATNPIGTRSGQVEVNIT

[2] = target: T2, Nectin-2 (2229-N2, R&D Systems) (UniProt Q92692 32-360, limits assumed, biotinylated); test: SPR, biotinylated target on streptavidin surface
T2 sequence (looked up): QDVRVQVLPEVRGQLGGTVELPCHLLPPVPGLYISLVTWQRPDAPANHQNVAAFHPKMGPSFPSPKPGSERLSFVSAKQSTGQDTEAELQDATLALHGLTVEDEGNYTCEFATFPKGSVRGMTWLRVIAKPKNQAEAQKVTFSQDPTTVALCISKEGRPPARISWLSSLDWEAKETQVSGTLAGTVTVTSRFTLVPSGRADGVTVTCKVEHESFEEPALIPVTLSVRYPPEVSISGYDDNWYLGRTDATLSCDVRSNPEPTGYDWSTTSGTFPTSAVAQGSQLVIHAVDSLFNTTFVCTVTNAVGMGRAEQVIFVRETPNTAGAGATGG

[3] = target: T3, Nectin-like-1 (3678-S4-050, R&D Systems) (UniProt Q8N126 25-330, biotinylated); test: SPR, biotinylated target on streptavidin surface
T3 sequence (looked up): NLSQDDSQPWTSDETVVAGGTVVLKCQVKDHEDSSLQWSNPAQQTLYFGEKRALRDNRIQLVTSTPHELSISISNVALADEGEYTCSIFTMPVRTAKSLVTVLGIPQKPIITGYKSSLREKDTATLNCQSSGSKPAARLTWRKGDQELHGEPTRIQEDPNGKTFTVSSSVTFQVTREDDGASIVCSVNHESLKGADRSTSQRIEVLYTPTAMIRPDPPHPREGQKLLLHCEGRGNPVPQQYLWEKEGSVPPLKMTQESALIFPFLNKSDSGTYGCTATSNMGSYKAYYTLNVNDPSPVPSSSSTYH

[4] = target: T4, Nectin-like-3 (4290-S4-050, R&D Systems) (UniProt Q8N3J6 25-367, biotinylated); test: SPR, biotinylated target on streptavidin surface
T4 sequence (looked up): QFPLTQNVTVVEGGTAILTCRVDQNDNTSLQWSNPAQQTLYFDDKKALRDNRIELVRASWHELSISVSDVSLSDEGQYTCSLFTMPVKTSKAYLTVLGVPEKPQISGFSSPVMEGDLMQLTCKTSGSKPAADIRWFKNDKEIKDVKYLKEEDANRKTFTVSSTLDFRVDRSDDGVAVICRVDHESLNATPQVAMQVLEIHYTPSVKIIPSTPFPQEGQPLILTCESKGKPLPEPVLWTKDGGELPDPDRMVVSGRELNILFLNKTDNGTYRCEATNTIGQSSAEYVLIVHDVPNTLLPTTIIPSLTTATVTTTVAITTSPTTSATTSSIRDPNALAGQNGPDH

[5] = target: T5, Nectin-like-5 (2530-CD-050, R&D Systems) (UniProt P15151 27-343, biotinylated); test: SPR, biotinylated target on streptavidin surface
T5 sequence (looked up): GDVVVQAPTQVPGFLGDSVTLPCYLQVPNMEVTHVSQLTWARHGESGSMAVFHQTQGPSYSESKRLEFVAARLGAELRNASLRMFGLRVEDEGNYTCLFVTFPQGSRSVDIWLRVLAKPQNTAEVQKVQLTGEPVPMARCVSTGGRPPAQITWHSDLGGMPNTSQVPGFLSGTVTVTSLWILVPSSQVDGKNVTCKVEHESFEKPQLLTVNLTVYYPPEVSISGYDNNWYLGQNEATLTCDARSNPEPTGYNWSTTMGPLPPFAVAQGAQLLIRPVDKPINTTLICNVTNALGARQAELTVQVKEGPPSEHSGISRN

[6] = target: T6, rat CD137 extracellular domain (rat, UniProt Q4W8J3 24-189); test: SPR dual binding, BCY11863 captured on biotinylated human Nectin-4, n = 2
T6 sequence: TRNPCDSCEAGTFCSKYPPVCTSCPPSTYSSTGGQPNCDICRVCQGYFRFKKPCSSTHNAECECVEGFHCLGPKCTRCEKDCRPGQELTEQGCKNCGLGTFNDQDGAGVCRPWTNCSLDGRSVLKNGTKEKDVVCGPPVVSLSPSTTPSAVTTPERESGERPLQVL

[7] = target: T7, mouse CD137 extracellular domain (mouse, UniProt P20334 24-187); test: as above
T7 construct: extracellular domain
T7 sequence (looked up): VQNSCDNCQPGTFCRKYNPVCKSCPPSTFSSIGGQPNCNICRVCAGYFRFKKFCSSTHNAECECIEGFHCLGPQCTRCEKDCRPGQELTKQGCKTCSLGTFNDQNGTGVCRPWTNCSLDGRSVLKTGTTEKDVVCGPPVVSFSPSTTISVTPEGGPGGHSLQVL

[8] = target: T8, mouse Nectin-4 extracellular domain (mouse, UniProt Q8R007 31-347, biotinylated where captured on the streptavidin chip); test: SPR direct binding, biotinylated Nectin-4 ECD on streptavidin chip, 25° C., n = 9
T8 construct: extracellular domain
T8 sequence (looked up): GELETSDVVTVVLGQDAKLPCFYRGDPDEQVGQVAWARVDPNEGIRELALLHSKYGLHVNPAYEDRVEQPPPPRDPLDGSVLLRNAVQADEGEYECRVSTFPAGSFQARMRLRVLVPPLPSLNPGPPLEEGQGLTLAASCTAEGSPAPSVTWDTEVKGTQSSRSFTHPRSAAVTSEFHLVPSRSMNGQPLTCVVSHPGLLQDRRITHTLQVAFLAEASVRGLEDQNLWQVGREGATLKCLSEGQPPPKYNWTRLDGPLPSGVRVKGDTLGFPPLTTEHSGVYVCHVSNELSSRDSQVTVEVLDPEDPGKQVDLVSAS

B1: heterotandem bicyclic peptide complex BCY11863 (peptide)
peptide 1: CP[1Nal][dD]CM[hArg]DWSTP[Hyp]WC
peptide 2: Ac-C[tBuAla]PE[dLys(PYA)]PYCFADPY[Nle]CA
modifications: linker I:1-I:5-I:15, II:1-II:8-II:15 via TATA; not fully specified (bridges); also: 1:2 complex: BCY8116 + 2x BCY8928
notes: also called Nectin-4/CD137 heterotandem
B1: no binding (tested: 5000 nM) [1]; no binding (tested: 5000 nM) [2]; no binding (tested: 5000 nM) [3]. B1: no binding (tested: 5000 nM) [4]; no binding (tested: 5000 nM) [5]; no binding [6]. The binding result [7] was “no binding” and the Kd [8] was 4.6 nM.
